Experimental data: article PMC7321188

What was measured:
Conditions in all cases: remark: other sources report otherwise
[1] = target: G2019S LRRK2-GFP (Parkinson's disease mutant of Leucine-Rich Repeat Kinase 2, GFP fusion) (UniProt Q5S007); experiment: fluorescence fluctuation spectroscopy (number and brightness) by TIRF microscopy; TIRF, near the plasma membrane of live differentiated SH-SY5Y cells; brightness normalised to monomeric GFP
[2] = target: G2019S LRRK2-GFP (Parkinson's disease mutant of Leucine-Rich Repeat Kinase 2, GFP fusion) (UniProt Q5S007); experiment: fluorescence fluctuation spectroscopy (number and brightness + photon counting histogram); two-photon confocal, cytosol of live differentiated SH-SY5Y cells at 37 °C; brightness normalised to monomeric GFP; LRRK2-GFP below 300 nM
[3] = target: WT LRRK2-GFP (Leucine-Rich Repeat Kinase 2, wild type, GFP fusion) (UniProt Q5S007); experiment: fluorescence fluctuation spectroscopy (number and brightness) by TIRF microscopy; TIRF, near the plasma membrane of live differentiated SH-SY5Y cells; brightness normalised to monomeric GFP

| normalized brightness (sample over the monomer control) [1] | normalized brightness (sample over the monomer control) [2] | normalized brightness (sample over the monomer control) [3] | Substance |
| --- | --- | --- | --- |
| 2.5 | 2.1 | – | G2019S LRRK2-GFP (Parkinson's disease mutant of Leucine-Rich Repeat Kinase 2, GFP fusion), Q5S007 1-2527 |
| – | – | 2.5 | WT LRRK2-GFP (Leucine-Rich Repeat Kinase 2, wild type, GFP fusion), Q5S007 1-2527 |
